# T1: EMCV 2A wild type (Encephalomyocarditis virus (EMCV), UniProt P12296 902-1044)
# T1 sequence: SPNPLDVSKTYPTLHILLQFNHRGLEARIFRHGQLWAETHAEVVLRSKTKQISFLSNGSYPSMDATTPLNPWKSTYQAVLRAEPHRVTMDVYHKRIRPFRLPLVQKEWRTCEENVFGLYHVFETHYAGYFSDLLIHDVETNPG
# What was measured:
# EMCV 2A wild type [1] = molecular target: T1, EMCV 2A wild type; test: MST; labelled 2A; MST: 50 mM Tris-HCl pH 7.8, 150 mM NaCl, 10 mM MgCl2, 2 mM DTT, 0.05% Tween 20, 25 C; EMSA: 10 mM Tris-HCl pH 7.4, ~140 mM salt, 2 mM Mg acetate, 1 mM DTT, 5% glycerol, 100 ug/mL tRNA, 37 C; ITC: 50 mM Tris-HCl pH 7.4, 400 mM NaCl, 25 C; tweezers: 20 mM HEPES pH 7.6, 300 mM KCl, 5 mM MgCl2, 5 mM DTT, 0.05% Tween; conditions: protein: recombinant; tags: C-terminal GlySerLysHis6; label: 5' fluorophore (Dylight 650 in MST, A647/Cy5 in EMSA); unlabelled when 2A is labelled; stem-loop
# EMCV 2A wild type [2] = molecular target: T1, EMCV 2A wild type; test: EMSA; MST: 50 mM Tris-HCl pH 7.8, 150 mM NaCl, 10 mM MgCl2, 2 mM DTT, 0.05% Tween 20, 25 C; EMSA: 10 mM Tris-HCl pH 7.4, ~140 mM salt, 2 mM Mg acetate, 1 mM DTT, 5% glycerol, 100 ug/mL tRNA, 37 C; ITC: 50 mM Tris-HCl pH 7.4, 400 mM NaCl, 25 C; tweezers: 20 mM HEPES pH 7.6, 300 mM KCl, 5 mM MgCl2, 5 mM DTT, 0.05% Tween; conditions: protein: recombinant; tags: C-terminal GlySerLysHis6; label: 5' Cy5
# EMCV 2A wild type [3] = molecular target: T1, EMCV 2A wild type; test: EMSA; binding restored; MST: 50 mM Tris-HCl pH 7.8, 150 mM NaCl, 10 mM MgCl2, 2 mM DTT, 0.05% Tween 20, 25 C; EMSA: 10 mM Tris-HCl pH 7.4, ~140 mM salt, 2 mM Mg acetate, 1 mM DTT, 5% glycerol, 100 ug/mL tRNA, 37 C; ITC: 50 mM Tris-HCl pH 7.4, 400 mM NaCl, 25 C; tweezers: 20 mM HEPES pH 7.6, 300 mM KCl, 5 mM MgCl2, 5 mM DTT, 0.05% Tween; conditions: protein: recombinant; tags: C-terminal GlySerLysHis6; label: 5' Cy5; pseudoknot-like
Binder,binding result (EMCV 2A wild type [2]),also measured
AGCGGCAGUGUCAUCAAUGGCUCAAACCCUACUGCCGAA (structured_RNA) [EMCV 4],–,binding result (EMCV 2A wild type [1]): no binding
EMCV 3 G7C (structured_RNA) RNA: GGGUUUUUCAGACUCAACGAGCGGCAGUGUCAUCAAUGGCUCAAACCCUACUGCCGAA,no binding,–
EMCV 3 G7C+C37G (structured_RNA) RNA: GGGUUUUUCAGACUCAACGAGCGGCAGUGUCAUCAAUGGCUCAAACCGUACUGCCGAA,–,binding result (EMCV 2A wild type [3]): binds
EMCV 3 C37G (structured_RNA) RNA: GGGUUUUUCAGACUCAAGGAGCGGCAGUGUCAUCAAUGGCUCAAACCGUACUGCCGAA,no binding,–

# Source: article PMC8660796, “Structural and molecular basis for Cardiovirus 2A protein as a viral gene expression switch”
